Results reported in US20100068807.

Target: GST fusion IRF7 (GST fused to amino acids 422-457 of mouse IRF-7, from pGST-IRF7) [GST: P08515]

B1: 6myc-mIKKα (wild-type mouse IKKα with 6 myc tags, expressed from pSRα-6myc-mIKKα in 293T cells) (protein)
chain: MERPPGLRPGAGGPWEMRERLGTGGFGNVSLYQHRELDLKIAIKSCRLELSSKNRERWCHEIQIMKKLDHANVVKACDVPEELNFLINDVPLLAMEYCSGGDLRKLLNKPENCCGLKESQILSLLSDIGSGIRYLHENKIIHRDLKPENIVLQDVGGKTIHKIIDLGYAKDVDQGSLCTSFVGTLQYLAPELFENKPYTATVDYWSFGTMVFECIAGYRPFLHHLQPFTWHEKIKKKDPKCIFACEEMTGEVRFSSHLPQPNSLCSLIVEPMESWLQLMLNWDPQQRGGPIDLTLKQPRCFALMDHILNLKIVHILNMTSAKIISFLLPCDESLHSLQSRIERETGINTGSQELLSETGISLDPRKPASQCVLDGVRGCDSYMVYLFDKSKTVYEGPFASRSLSDCVNYIVQDSKIQLPIIQLRKVWAEAVHYVSGLKEDYSRLFQGQRAAMLSLLRYNANLTKMKNTLISASQQLKAKLEFFRKSIQLDLERYSEQMTYGISSEKMLKAWKEMEEKAIHYSEVGVIGYLEDQIMSLHTEIMELQKSPYGRRQGDLMESLEQRAIDLYKQLKHRPPDHLYSDSTEMVKIIVHTVQSQDRVLKELFGHLSKLLGCKQKIIDLLPKVEVALSNIKEADNTVMFMQGKRQKEIWHLLKIACTQSSARSLVGSSLEGTVTPPVSAWLPPTLADREHPLTCVVTPQDGETLAQMIEENLNCLGHLSTIIREANEDQSSSLMSLDWSWLAE
Question: Which “phosphorylation of substrate (in vitro kinase assay with [γ-32P]ATP, SDS-PAGE and autoradiography)” value does the source give for B1 here?
Answer: IRF7 was phosphorylated by IKKα
